The target in this assay is E-cadherin (canine (endogenous in MDCK)). Nature of the assay: co-IP; 1 mg MDCK lysate (RIPA buffer) from Mock or DDR1-knockdown (Sh-DDR1) cells, incubated overnight at 4 °C with 1 μg anti-E-cadherin antibody, protein G-sepharose beads; immunoblot with anti-clathrin heavy chain; control antibody as negative control.

Turning to clathrin heavy chain (natural protein), the fold increase of the clathrin/E-cadherin co-IP ratio, Sh-DDR1 cells against Mock cells was 3.5 fold.

The record behind these values is article PMC5099905.
